According to patent US20220267469A1 (LIPUM, published 2022):

Experiments:
Mouse BSSL, recombinant [1] = target: T1, Mouse BSSL, recombinant (mouse, UniProt Q64285 21-599); test: SPR steady state analysis
T1 construct: Bought (R&D Systems, Cat. no 5658-CE); also called mBSSL; murine BSSL
T1 sequence: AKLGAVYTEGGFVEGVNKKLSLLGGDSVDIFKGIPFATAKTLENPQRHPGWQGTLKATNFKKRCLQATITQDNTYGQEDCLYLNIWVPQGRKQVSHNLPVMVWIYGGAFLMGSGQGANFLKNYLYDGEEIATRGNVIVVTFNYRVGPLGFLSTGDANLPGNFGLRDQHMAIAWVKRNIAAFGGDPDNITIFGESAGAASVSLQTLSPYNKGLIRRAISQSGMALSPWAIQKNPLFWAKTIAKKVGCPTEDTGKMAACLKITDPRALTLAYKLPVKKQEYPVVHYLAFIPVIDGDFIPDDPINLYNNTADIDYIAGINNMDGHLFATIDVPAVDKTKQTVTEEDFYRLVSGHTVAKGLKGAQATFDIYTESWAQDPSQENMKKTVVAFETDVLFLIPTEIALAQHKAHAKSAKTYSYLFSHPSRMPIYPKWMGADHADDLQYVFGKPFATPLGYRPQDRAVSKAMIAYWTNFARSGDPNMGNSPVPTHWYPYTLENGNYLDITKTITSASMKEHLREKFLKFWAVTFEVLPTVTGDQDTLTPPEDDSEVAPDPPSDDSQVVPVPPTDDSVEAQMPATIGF
Experimental: (§1) SPR measurements were performed with a BIACORE® T200 instrument (GE Healthcare). In order to minimize avidity effects, the antibody was immobilized on the sensor surface and BSSL was injected as the analyte. Immobilization of AS20 mlgG1 was performed by amine coupling to a BIACORE® CM5 (carboxylated dextran surface) sensor chip. The chips were activated by injection of a 1:1 mixture of 0.2 M N-ethyl-N′-[(dimethylamino)peopyl]carbodiimide (EDC) and 0.05 M N-hydroxysucciminimde (NHS) with a contact time of 7 minutes. The antibody was injected for 0.2-2.8 minutes diluted to 14-50 μg/ml in 10 mM acetate-HCl pH 5.0 (set one) or pH 6.0 (set two) to reach final immobilization levels of between 560 and 830 RU. Remaining activated carboxyl groups on the sensor surface were deactivated with an injection of 1 M ethanolamine for 7 minutes.
(§2) In the second set of experiments the running buffer was 25 mM TrisHCl, pH 7.5, 150 mM NaCl. 146 mM H₃PO₄ was used as the standard regeneration solution. The kinetic studies and the non-linear regression analysis were made according to the Single Cycle Kinetics (SCK) method of the BIACORE® T200 instrument and evaluation software. The interaction between mBSSL and AS20 mlgG1 was analyzed with steady state affinity model.

Biotinylated human BSSL [2] = target: T2, Biotinylated human BSSL (human, UniProt P19835 21-753, Biotinylated on glycosacarides, 30-40 biotin/BSSL); test: flow cytometry displacement assay; 0.5 ug antibody, 1 ug b-hBSSL
T2 construct: hBSSL biotinylated in house; also called b-hBSSL; human BSSL-biotin
T2 sequence: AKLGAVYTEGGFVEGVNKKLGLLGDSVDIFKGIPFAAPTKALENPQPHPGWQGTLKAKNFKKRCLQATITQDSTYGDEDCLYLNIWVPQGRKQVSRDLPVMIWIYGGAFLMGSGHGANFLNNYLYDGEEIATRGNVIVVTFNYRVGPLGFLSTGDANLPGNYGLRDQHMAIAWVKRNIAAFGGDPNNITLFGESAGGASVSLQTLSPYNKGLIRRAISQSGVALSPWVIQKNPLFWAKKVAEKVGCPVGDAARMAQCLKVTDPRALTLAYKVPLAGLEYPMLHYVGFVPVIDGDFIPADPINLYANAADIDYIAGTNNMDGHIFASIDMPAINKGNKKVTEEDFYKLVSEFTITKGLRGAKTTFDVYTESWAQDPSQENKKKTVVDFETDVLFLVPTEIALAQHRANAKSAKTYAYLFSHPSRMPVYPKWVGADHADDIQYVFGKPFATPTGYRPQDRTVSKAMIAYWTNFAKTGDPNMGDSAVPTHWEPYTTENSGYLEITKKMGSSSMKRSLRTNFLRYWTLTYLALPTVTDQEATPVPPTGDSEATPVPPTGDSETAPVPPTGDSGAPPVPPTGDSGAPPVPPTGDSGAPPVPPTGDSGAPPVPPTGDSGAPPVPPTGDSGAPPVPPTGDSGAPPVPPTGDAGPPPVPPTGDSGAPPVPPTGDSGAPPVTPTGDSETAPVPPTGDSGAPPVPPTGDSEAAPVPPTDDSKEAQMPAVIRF
Experimental: (§3) The 28 BSSL-specific hIgG4 antibodies and the five reference antibodies at different concentrations (ranging from 0.5 μg to 3.0 μg per reaction; see Table 10) were added to b-hBSSL (1 μg per reaction, see Table 2) in round-bottom polystyrene tubes, lx PBS (pH 7.4) was added to a final volume of 20 μl and the antibody/b-hBSSL mixtures were incubated for 30 min. at +4° C. to facilitate binding of antibodies to BSSL. Buffy coat (50 μl) was then added to each antibody/b-hBSSL mixture and incubation continued for another 30 min at +4° C. Thereafter, 2 ml of FACS lysing solution (BD Biosciences) was added and the cells were incubated for 10 min at room temperature in order to lyse erythrocytes and fix the white blood cells. The cells were then centrifuged for 5 min. at 200×g, the resulting pellets were washed by adding 2 ml of FACS buffer (1×PBS supplemented with 1% FCS and 0.1% NaN3) and centrifuged again. Finally, the supernatants were discarded and the cells were resuspended in the last drop of liquid, approximately 50 μl.
(§4) 5 μl of BV421-labelled anti-human CD14 (BD Biosciences) and 5 μl of BB515-labelled streptavidin (BD Biosciences) was added to each tube and incubated for 30 min, at +4° C., protected from light. Thereafter, cells were washed twice with FACS buffer, resuspended in 500 μl FACS buffer, and run on BD LSRII flow cytometer (BD Biosciences). Finally, data were analyzed using FlowJo software (BD Biosciences).

Biotinylated human BSSL [3] = target: T2, Biotinylated human BSSL; test: flow cytometry displacement assay; 1.0 ug antibody, 1 ug b-hBSSL
Experimental: as §3, §4

Biotinylated human BSSL [4] = target: T2, Biotinylated human BSSL; test: flow cytometry displacement assay; 1.5 ug antibody, 1 ug b-hBSSL
Outline: (§5)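 Antibody (0.5–3.0 μg per reaction) preincubated with 1 μg biotinylated human BSSL in PBS pH 7.4, 30 min at 4 °C, then with human buffy coat 30 min at 4 °C. After erythrocyte lysis/fixation, bound BSSL on CD14+ monocytes detected by labelled streptavidin via flow cytometry.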

Biotinylated human BSSL [5] = target: T2, Biotinylated human BSSL; test: flow cytometry displacement assay; 2.0 ug antibody, 1 ug b-hBSSL
Experimental: as §3, §4

Biotinylated human BSSL [6] = target: T2, Biotinylated human BSSL; test: flow cytometry displacement assay; 3.0 ug antibody, 1 ug b-hBSSL
Outline: as §5

[7] = target: T3, Human BSSL (bile salt-stimulated lipase), native (human, UniProt P19835 21-753); test: SPR single cycle kinetics, antibody immobilised, first set of experiments
T3 construct: Native full-length protein purified from human milk (Astra Hässle AB); also called hBSSL; non-biotinylated human BSSL
T3 sequence: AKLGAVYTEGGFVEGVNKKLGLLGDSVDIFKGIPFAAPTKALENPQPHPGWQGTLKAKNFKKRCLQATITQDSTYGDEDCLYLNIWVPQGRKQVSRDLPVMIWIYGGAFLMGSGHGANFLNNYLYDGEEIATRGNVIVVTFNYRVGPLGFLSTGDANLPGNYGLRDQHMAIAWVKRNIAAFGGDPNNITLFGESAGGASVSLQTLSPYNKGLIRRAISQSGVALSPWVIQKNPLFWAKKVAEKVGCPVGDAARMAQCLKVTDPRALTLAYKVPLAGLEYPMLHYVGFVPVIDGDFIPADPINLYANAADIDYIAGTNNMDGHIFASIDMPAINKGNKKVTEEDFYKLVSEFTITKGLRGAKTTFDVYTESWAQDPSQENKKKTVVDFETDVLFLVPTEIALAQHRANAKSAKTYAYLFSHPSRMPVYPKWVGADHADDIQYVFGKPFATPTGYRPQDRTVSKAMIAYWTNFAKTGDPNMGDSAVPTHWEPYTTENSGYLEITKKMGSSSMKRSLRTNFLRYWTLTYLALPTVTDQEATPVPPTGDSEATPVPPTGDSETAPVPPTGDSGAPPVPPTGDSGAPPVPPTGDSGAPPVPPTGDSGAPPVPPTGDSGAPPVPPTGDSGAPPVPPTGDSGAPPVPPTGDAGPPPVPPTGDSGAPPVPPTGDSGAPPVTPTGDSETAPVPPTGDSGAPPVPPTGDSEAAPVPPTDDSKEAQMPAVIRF
Experimental: as §1, §2

[8] = target: T3, Human BSSL (bile salt-stimulated …); test: SPR single cycle kinetics, antibody immobilised, second set of experiments
Experimental: as §1, §2

Mouse BSSL, recombinant [9] = target: T1, Mouse BSSL, recombinant; test: SPR steady state analysis, antibody immobilised, second set of experiments
Experimental: as §1, §2

B1: AS20 mouse IgG1 (antibody, V domains shown)
VH: QVQLQQPGAELVKPGASVKMSCKASGYTFTSYNMHWVKQTPGQGLEWIGVIYPGNGDTSYNQKFKGKATLTADKSSSTAYMQLSSLTSEDSAVYYCARDYYGSSPLGYWGQGTTLTVSS
VL: QIVLTQSPAVMSASPGEKVTMTCSASSSISYMHWYQQKPGTSPKRWIYDTSKLASGVPARFSGSGSGTSYSLTISSMEAEDAATYYCHQRSSYPTFGGGTKLEIK
notes: also called AS20 mlgG1; AS20 mIgG1
In the case of B1, the “fold weaker affinity than for human BSSL” value (Mouse BSSL, recombinant [1]) is reported as about 100 fold, the “percentage reduction of b-hBSSL binding to CD14+ monocytes” value (from here on “percentage reduction of b-hBSSL binding”) (Biotinylated human BSSL [2]) is reported as 31% and the “percentage reduction of b-hBSSL binding” value (Biotinylated human BSSL [3]) is reported as 66%. The “percentage reduction of b-hBSSL binding” value (Biotinylated human BSSL [4]) was 72%, the “percentage reduction of b-hBSSL binding” value (Biotinylated human BSSL [5]) was 74% and the “percentage reduction of b-hBSSL binding” value (Biotinylated human BSSL [6]) was 80%. The Kd [7] was 2.8 nM, the koff [7] was 0.00027 s⁻¹ and the kon [7] was 97000 M⁻¹ s⁻¹. For the same binder, the Kd [8] was 1.1 nM, the koff [8] was 0.00025 s⁻¹ and the kon [8] was 230000 M⁻¹ s⁻¹. For the same binder, the Kd (Mouse BSSL, recombinant [9]) was 155 nM.
